{
  "source": "patent US20200392244A1",
  "about": "(CRESCENDO BIOLOGICS, published 2020)",
  "binders": {"B1": {"name": "single VH domain antibody 2.1 (VHH)", "VHH": "EVQLVESGGGVVQPGRSLRLSCAASGFSFSGYGMHWVRQAPGKGLEWVAYISYDGSNKYYADSVKGRFTISRDNSKNTLYLQMNSLRAEDTAVYYCAKDPAWGLRLGESSSYDFDIWGQGTMVTVSS"}, "B2": {"name": "single VH domain antibody 2.12 (VHH)", "VHH": "B1 VHH with G55K, S63K", "notes": "variant of 2.1; human single VH domain; C-terminal His(-myc) tag not included"}, "B3": {"name": "single VH domain antibody 2.13 (VHH)", "VHH": "B1 VHH with M34L, G55A, S63N", "notes": "as for B2"}, "B4": {"name": "3.2 (VHH)", "VHH": "EVQLVESGGGVVQPGRSLRLSCAASGFPLISYGMNWVRQAPGKGLDWVAFISYDGSNKYYADSVKGRFTISKDNSKNTLYLQMNSLRAEDTAVYYCAKDRIVGARVPDAFDIWGQGTMVTVSS"}, "B5": {"name": "single VH domain antibody 3.1 (VHH)", "VHH": "B4 VHH with N35H, D46E, I51M, S52T, K58R, K72R, A88D, V93L, K98R, A104G", "notes": "human single VH domain; C-terminal His(-myc) tag not included; also called VH3.1; family 3 parent"}, "B6": {"name": "single VH domain antibody 5.1 (VHH)", "VHH": "QVQLVESGGGVVQPGRSLRLSCAASGFTFNNYGMHWVRQAPGKGLEWVAIISYDGNTKYYTDSVKGRFTISRDNSKNTLYLQMNSLRVEDTAVYYCAKGLWPSDVWGQGTTVTVSS"}, "B7": {"name": "single VH domain antibody 13.1 (VHH)", "VHH": "EVQLVESGGGSVQPGGSLRLSCAASGFTFSDYWMTWVRQVPGKGLEWVANIKQDGSEKYYVDSVKGRFTISRDNAKNSLYLQMNSLRAEDTAVYYCARDRGGAVALYHNGMDMGGQGTTVTVSS", "notes": "human single VH domain; C-terminal His(-myc) tag not included; also called family 13"}},
  "key": {"[1]": {"target": "T1, human PSMA on cells (CHO human PSMA, DU145 PSMA, LNCaP) (human, UniProt Q04609 1-750)", "T1 sequence (Q04609 whole entry)": "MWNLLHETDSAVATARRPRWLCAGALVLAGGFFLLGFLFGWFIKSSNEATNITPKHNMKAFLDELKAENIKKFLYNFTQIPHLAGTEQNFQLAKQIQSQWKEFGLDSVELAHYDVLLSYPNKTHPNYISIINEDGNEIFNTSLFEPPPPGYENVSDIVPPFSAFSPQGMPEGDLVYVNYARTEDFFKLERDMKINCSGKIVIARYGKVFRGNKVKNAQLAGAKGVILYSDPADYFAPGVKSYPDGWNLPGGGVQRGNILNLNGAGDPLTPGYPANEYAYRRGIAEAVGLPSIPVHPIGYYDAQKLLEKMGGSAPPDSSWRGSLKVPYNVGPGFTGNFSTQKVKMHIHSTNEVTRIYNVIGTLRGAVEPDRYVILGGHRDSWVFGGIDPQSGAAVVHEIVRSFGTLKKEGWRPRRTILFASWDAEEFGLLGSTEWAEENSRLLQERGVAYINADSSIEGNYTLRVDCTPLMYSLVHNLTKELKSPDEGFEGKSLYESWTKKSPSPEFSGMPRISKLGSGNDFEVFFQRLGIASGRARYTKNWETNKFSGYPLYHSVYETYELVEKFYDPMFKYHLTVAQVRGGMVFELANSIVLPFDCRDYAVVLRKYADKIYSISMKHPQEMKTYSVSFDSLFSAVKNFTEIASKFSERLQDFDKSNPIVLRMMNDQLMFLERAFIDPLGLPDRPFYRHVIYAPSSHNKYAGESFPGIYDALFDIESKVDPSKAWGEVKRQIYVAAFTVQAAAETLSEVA", "test": "cell-based or functional assay"}, "[2]": {"target": "T2, cynomolgus PSMA on CHO cells (cynomolgus, UniProt A0A2K5VNZ0 1-750)", "test": "cell-based or functional assay"}, "[3]": {"target": "T1, human PSMA on cells (CHO human PSMA, …)", "test": "FMAT Mirrorball direct cell binding of purified His-tagged VH on LNCaP cells [panel LNCap]"}, "[4]": {"target": "T1, human PSMA on cells (CHO human PSMA, …)", "test": "FMAT Mirrorball direct cell binding of purified His-tagged VH on DU145 cells expressing PSMA [panel Du145 PSMA]"}, "[5]": {"target": "T1, human PSMA on cells (CHO human PSMA, …)", "test": "FMAT Mirrorball direct cell binding of purified His-tagged VH on CHO cells expressing human PSMA [upper left panel huPSMA CHO]"}, "[6]": {"target": "T2, cynomolgus PSMA on CHO cells", "test": "cell-based or functional assay", "remark": "listed apart in the source"}, "[7]": {"target": "T3, recombinant human PSMA (R&D, cat. no. 4234-ZN) (human, UniProt Q04609 44-750)", "T3 construct": "Bought protein; also called rhPSMA; Recombinant PMSA", "T3 sequence (Q04609 44-750 limits assumed)": "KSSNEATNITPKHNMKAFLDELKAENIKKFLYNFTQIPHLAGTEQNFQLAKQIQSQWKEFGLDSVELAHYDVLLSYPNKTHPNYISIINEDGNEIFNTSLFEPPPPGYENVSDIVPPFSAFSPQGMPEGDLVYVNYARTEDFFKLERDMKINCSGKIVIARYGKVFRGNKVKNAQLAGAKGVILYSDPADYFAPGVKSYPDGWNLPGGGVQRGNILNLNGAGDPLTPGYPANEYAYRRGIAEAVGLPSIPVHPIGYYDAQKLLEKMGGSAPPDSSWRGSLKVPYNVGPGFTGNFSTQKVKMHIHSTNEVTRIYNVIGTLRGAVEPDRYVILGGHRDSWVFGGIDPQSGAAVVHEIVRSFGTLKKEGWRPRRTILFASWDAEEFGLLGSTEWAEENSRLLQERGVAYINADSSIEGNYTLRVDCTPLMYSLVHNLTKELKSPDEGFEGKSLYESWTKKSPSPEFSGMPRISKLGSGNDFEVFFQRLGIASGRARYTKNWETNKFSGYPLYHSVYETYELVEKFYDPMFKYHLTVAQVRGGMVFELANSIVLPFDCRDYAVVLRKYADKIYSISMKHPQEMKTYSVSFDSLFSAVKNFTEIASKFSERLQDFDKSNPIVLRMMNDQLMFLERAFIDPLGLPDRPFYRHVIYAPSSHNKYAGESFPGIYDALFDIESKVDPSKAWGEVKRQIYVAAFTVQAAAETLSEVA", "test": "HTRF binding assay with 3 nM biotinylated PSMA; VH 7 days in cynomolgus serum at 37 C"}, "[8]": {"target": "T2, cynomolgus PSMA on CHO cells", "test": "FMAT screen, Cyno PSMA CHO cells"}},
  "note": "Residue numbers refer to the chain shown, from its start.",
  "data": [
    {"binder": "B1", "values": [
      {"measurement": "IC50 (read off the curve), His-ZAP killing", "setting": "[1]", "result": "~0.04", "unit": "nM"},
      {"measurement": "IC50 (read off the curve), His-ZAP killing", "setting": "[2]", "result": "~0.1", "unit": "nM"}
    ]},
    {"binder": "B2", "values": [
      {"measurement": "EC50 (read off the curve)", "setting": "[3]", "result": "~0.03", "unit": "nM"},
      {"measurement": "EC50 (read off the curve)", "setting": "[4]", "result": "~0.2", "unit": "nM"},
      {"measurement": "EC50 (read off the curve)", "setting": "[5]", "result": "~0.1", "unit": "nM"}
    ]},
    {"binder": "B3", "values": [
      {"measurement": "EC50 (read off the curve)", "setting": "[4]", "result": "~0.2", "unit": "nM"},
      {"measurement": "EC50 (read off the curve)", "setting": "[5]", "result": "~0.1", "unit": "nM"}
    ]},
    {"binder": "B4", "values": [
      {"measurement": "EC50 (read off the curve), pHrodo Green internalisation", "setting": "[6]", "result": "~1e-09", "unit": "M"}
    ]},
    {"binder": "B5", "values": [
      {"measurement": "EC50 (read off the curve)", "setting": "[7]", "result": "~1", "unit": "nM"}
    ]},
    {"binder": "B6", "values": [
      {"measurement": "EC50 (read off the curve), pHrodo Green internalisation", "setting": "[6]", "result": "~2e-09", "unit": "M"}
    ]},
    {"binder": "B7", "values": [
      {"measurement": "binding result", "setting": "[8]", "result": "no binding"}
    ]}
  ]
}
